± gives the standard deviation of the averaged measurements.
Tests used:
[1] = tested on: Saccharomyces cerevisiae; assay: protein stability index of tFT-peptide fusion (C-terminal peptide) (PSI (0-1 scale)); higher = more stable (slower turnover)
Method: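 MPS profiling in S. cerevisiae of the tFT-X12 degron library: putative degron peptides plus stable controls, 12 aa, fused to the C-terminus of a sfGFP-mCherry timer. Cells are FACS-sorted into 8 mCherry/sfGFP bins and deep-sequenced. PSI runs from 0 (unstable) to 1 (stable). Backgrounds are wild type, das1Δ and doa10Δ at 30 °C, and wild type, das1Δ, cdc34-1 and cdc53-1 at 37 °C; 2-3 technical replicates each.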

[2] = tested on: Saccharomyces cerevisiae; assay: as above; settings: genetic background: wild type; temperature: 30 C
[3] = genetic background: cdc34-1, temperature: 37 C
[4] = genetic background: cdc53-1, temperature: 37 C
[5] = genetic background: das1 deletion, temperature: 30 C
[6] = genetic background: das1 deletion, temperature: 37 C
[7] = genetic background: doa10 deletion, temperature: 30 C
[8] = genetic background: wild type, temperature: 30 C
[9] = genetic background: wild type, temperature: 37 C
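Note: PSI is a weighted mean of sequencing reads over stability bins, variants kept only with over 10 reads, mCherry proximal and sfGFP distal, peptide attached via GGGS linker.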

| Sequence | protein stability index [1, 3] | protein stability index [1, 4] | protein stability index [1, 5] | protein stability index [1, 6] | protein stability index [1, 7] | protein stability index [1, 8] | protein stability index [1, 9] | protein stability index [2] |
| --- | --- | --- | --- | --- | --- | --- | --- | --- |
| GIGVVWLDVFKT | 0.4 ± 0.0057 | 0.499 ± 0.024 | 0.321 ± 0.035 | 0.537 ± 0.011 | 0.301 ± 0.024 | 0.304 ± 0.017 | 0.504 ± 0.035 | 0.426 ± 0.017 |
| IYLLLFFFSFSA | 0.365 ± 0.032 | 0.449 ± 0.053 | 0.376 ± 0.017 | 0.5104 ± 0.0037 | 0.3328 ± 6e-05 | 0.348 ± 0.029 | 0.457 ± 0.024 | 0.3914 ± 0.0012 |
| GAVVYGICFCTN | 0.624 ± 0.011 | 0.617 ± 0.0081 | 0.388 ± 0.031 | 0.637 ± 0.027 | 0.35 ± 0.0049 | 0.363 ± 0.035 | 0.621 ± 0.0069 | 0.442 ± 0.061 |
| SLPCCKVVFCVI | 0.5166 ± 0.001 | 0.554 ± 0.023 | 0.417 ± 0.038 | 0.575 ± 0.01 | 0.332 ± 0.0048 | 0.355 ± 0.036 | 0.515 ± 0.015 | 0.4491 ± 0.003 |
| PGHICVPVLGTA | 0.453 ± 0.021 | 0.467 ± 0.0061 | 0.348 ± 0.037 | 0.513 ± 0.0077 | 0.3072 ± 0.003 | 0.357 ± 0.027 | 0.517 ± 0.036 | 0.447 ± 0.027 |
| SLIFLLVLILSL | 0.412 ± 0.023 | 0.51 ± 0.05 | 0.369 ± 0.038 | 0.493 ± 0.029 | 0.364 ± 0.048 | 0.347 ± 0.036 | 0.483 ± 0.046 | 0.363 ± 0.074 |
| RMCEILGIRHLI | 0.611 ± 0.031 | 0.742 ± 0.016 | 0.645 ± 0.025 | 0.748 ± 0.017 | 0.137 ± 0.013 | 0.158 ± 0.01 | 0.303 ± 0.016 | 0.245 ± 0.061 |
| VVSVVVLVNSRG | 0.465 ± 0.029 | 0.501 ± 0.067 | 0.36 ± 0.023 | 0.5405 ± 0.0032 | 0.3414 ± 0.0024 | 0.373 ± 0.024 | 0.518 ± 0.0064 | 0.441 ± 0.017 |
| RCSLFAKQVVSL | 0.381 ± 0.032 | 0.442 ± 0.029 | 0.451 ± 0.012 | 0.405 ± 0.0067 | 0.437 ± 0.021 | 0.43 ± 0.0057 | 0.37093 ± 0.00035 | 0.453 ± 0.074 |
| PCNVLWYSLFLF | 0.487 ± 0.015 | 0.597 ± 0.025 | 0.452 ± 0.027 | 0.597 ± 0.018 | 0.175 ± 0.018 | 0.19 ± 0.017 | 0.34 ± 0.0062 | 0.271 ± 0.0091 |
| SRGGVFYVRIHS | 0.647 ± 0.043 | 0.709 ± 0.014 | 0.628 ± 0.016 | 0.697 ± 0.018 | 0.239 ± 0.0035 | 0.279 ± 0.029 | 0.4917 ± 0.0011 | 0.455 ± 0.051 |
| RLWLPLSLVLWV | 0.376 ± 0.05 | 0.3824 ± 0.0031 | 0.37 ± 0.072 | 0.505 ± 0.012 | 0.414 ± 0.03 | 0.341 ± 0.05 | 0.421 ± 0.041 | 0.427 ± 0.029 |
| PAVRRLTGLMLM | 0.6812 ± 0.0047 | 0.7493 ± 0.0057 | 0.612 ± 0.014 | 0.737 ± 0.024 | 0.276 ± 0.011 | 0.321 ± 0.0051 | 0.566 ± 0.022 | 0.413 ± 0.011 |
| YDLRRIGRIGVG | 0.316 ± 0.02 | 0.404 ± 0.012 | 0.348 ± 0.019 | 0.402 ± 0.016 | 0.3542 ± 0.003 | 0.338 ± 0.0099 | 0.381 ± 0.026 | 0.363 ± 0.016 |
| YLCCFSVAFFLG | 0.175 ± 0.0039 | 0.331 ± 0.098 | 0.206 ± 0.039 | 0.3961 ± 0.00067 | 0.131 ± 4.8e-05 | 0.153 ± 0.018 | 0.317 ± 0.024 | 0.257 ± 0.072 |
| SVRGGSFLVHLC | 0.614 ± 0.096 | 0.758 ± 0.011 | 0.636 ± 0.018 | 0.7525 ± 0.0012 | 0.154 ± 0.017 | 0.168 ± 0.015 | 0.337 ± 0.015 | 0.337 ± 0.043 |
| RERRISRIPCLS | 0.594 ± 0.058 | 0.678 ± 0.01 | 0.526 ± 0.018 | 0.6867 ± 0.0014 | 0.174 ± 0.0033 | 0.185 ± 0.035 | 0.362 ± 0.028 | 0.276 ± 0.057 |
| TLCHLTLICVRE | 0.221 ± 0.0099 | 0.253 ± 0.018 | 0.226 ± 0.019 | 0.358 ± 0.011 | 0.1767 ± 0.00029 | 0.21 ± 0.018 | 0.336 ± 0.012 | 0.382 ± 0.027 |
| RVEPYDLARRVL | 0.725 ± 0.038 | 0.768 ± 0.028 | 0.665 ± 0.027 | 0.759 ± 0.02 | 0.652 ± 0.025 | 0.628 ± 0.015 | 0.71 ± 0.018 | 0.726 ± 0.0081 |
| ILFCVRIGLFWT | 0.0461 ± 0.0067 | 0.135 ± 0.0014 | 0.137 ± 0.03 | 0.24 ± 0.0035 | 0.146 ± 0.019 | 0.128 ± 0.03 | 0.179 ± 0.014 | 0.219 ± 0.051 |

| Sequence | protein stability index [1, 3] | protein stability index [1, 4] | protein stability index [1, 5] | protein stability index [1, 6] | protein stability index [1, 7] | protein stability index [1, 8] | protein stability index [1, 9] | protein stability index [2] |
| --- | --- | --- | --- | --- | --- | --- | --- | --- |
| IIFWMWVIIRVY | 0.121 ± 0.11 | 0.0686 ± 0.034 | 0.142 ± 0.04 | 0.205 ± 0.0091 | 0.114 ± 0.04 | 0.108 ± 0.039 | 0.116 ± 0.092 | 0.139 ± 0.044 |
| VWSVSVTIVGRR | 0.5289 ± 0.0013 | 0.573 ± 0.035 | 0.423 ± 0.037 | 0.528 ± 0.017 | 0.439 ± 0.032 | 0.455 ± 0.0093 | 0.507 ± 0.0052 | 0.458 ± 0.011 |
| FCLFMFVPLLPL | 0.531 ± 0.032 | 0.589 ± 0.013 | 0.455 ± 0.036 | 0.5868 ± 0.0043 | 0.4421 ± 0.0041 | 0.452 ± 0.027 | 0.5642 ± 0.003 | 0.453 ± 0.052 |
| LCVFFRCFFVGG | 0.529 ± 0.046 | 0.588 ± 0.022 | 0.457 ± 0.015 | 0.608 ± 0.0094 | 0.433 ± 0.017 | 0.448 ± 0.018 | 0.5722 ± 0.0043 | 0.514 ± 0.028 |
| INGINHKIIKIV | 0.44 ± 0.025 | 0.721 ± 0.042 | 0.65 ± 0.036 | 0.72 ± 0.013 | 0.0842 ± 0.014 | 0.0896 ± 0.017 | 0.0909 ± 0.0048 | 0.155 ± 0.025 |
| FSPSPVFVTCRV | 0.247 ± 0.027 | 0.255 ± 0.013 | 0.208 ± 0.047 | 0.343 ± 0.0046 | 0.182 ± 0.0066 | 0.218 ± 0.031 | 0.296 ± 0.011 | 0.356 ± 0.01 |
| PGVWVVILRWWV | 0.0876 ± 0.044 | 0.179 ± 0.011 | 0.123 ± 0.02 | 0.243 ± 0.035 | 0.0879 ± 0.0095 | 0.0841 ± 0.034 | 0.182 ± 0.011 | 0.152 ± 0.01 |
| WHFPCPPLPCPV | 0.4132 ± 0.0036 | 0.42896 ± 0.0003 | 0.325 ± 0.031 | 0.484 ± 0.0032 | 0.298 ± 0.0082 | 0.347 ± 0.035 | 0.4714 ± 0.0025 | 0.4846 ± 0.0013 |
| MSCILFCCLVPF | 0.545 ± 0.039 | 0.57 ± 0.034 | 0.423 ± 0.023 | 0.568 ± 0.014 | 0.381 ± 0.012 | 0.402 ± 0.029 | 0.549 ± 0.017 | 0.4748 ± 0.0035 |
| WCVCVSMRMIAI | 0.15 ± 0.015 | 0.193 ± 0.008 | 0.201 ± 0.011 | 0.175 ± 0.013 | 0.202 ± 0.0073 | 0.187 ± 0.002 | 0.159 ± 0.013 | 0.165 ± 0.0094 |
| GVGAISLGFSWL | 0.734 ± 0.021 | 0.763 ± 0.013 | 0.658 ± 0.019 | 0.7855 ± 0.0022 | 0.652 ± 0.03 | 0.67 ± 0.027 | 0.7491 ± 0.0035 | 0.717 ± 0.013 |
| IISPLRLLPLFF | 0.634 ± 0.018 | 0.73 ± 0.013 | 0.61 ± 0.039 | 0.724 ± 0.0088 | 0.271 ± 0.011 | 0.298 ± 0.03 | 0.515 ± 0.0086 | 0.388 ± 0.017 |
| TRPHPLRRVFIF | 0.669 ± 0.034 | 0.725 ± 0.013 | 0.643 ± 0.0072 | 0.735 ± 0.013 | 0.226 ± 0.013 | 0.23 ± 0.038 | 0.433 ± 0.041 | 0.293 ± 0.026 |
| LHLTFRLAVLYY | 0.3205 ± 0.002 | 0.355 ± 0.0097 | 0.293 ± 0.037 | 0.395 ± 0.03 | 0.317 ± 0.029 | 0.275 ± 0.021 | 0.371 ± 0.039 | 0.338 ± 0.032 |
| VCMVLCRWRGLG | 0.601 ± 0.028 | 0.704 ± 0.0075 | 0.6061 ± 0.0028 | 0.6993 ± 0.0046 | 0.219 ± 0.011 | 0.234 ± 0.038 | 0.443 ± 0.026 | 0.331 ± 0.01 |
| PFAGRLWVTSSF | 0.707 ± 0.052 | 0.7726 ± 0.005 | 0.671 ± 0.011 | 0.7908 ± 0.0063 | 0.685 ± 0.021 | 0.674 ± 0.022 | 0.7558 ± 0.0072 | 0.752 ± 0.035 |
| VFRHFYTFLALC | 0.338 ± 0.043 | 0.414 ± 0.013 | 0.472 ± 0.014 | 0.5932 ± 0.0029 | 0.111 ± 0.0013 | 0.0988 ± 0.017 | 0.132 ± 0.018 | 0.16 ± 0.0087 |
| ETVHVISLIAIG | 0.428 ± 0.021 | 0.5059 ± 0.0027 | 0.33 ± 0.047 | 0.527 ± 0.017 | 0.279 ± 0.014 | 0.33 ± 0.021 | 0.49577 ± 7e-05 | 0.47 ± 0.037 |
| GRLRLGVLCGGV | 0.611 ± 0.016 | 0.661 ± 0.014 | 0.469 ± 0.021 | 0.655 ± 0.018 | 0.454 ± 0.0071 | 0.472 ± 0.013 | 0.634 ± 0.017 | 0.529 ± 0.045 |

From the supplement of paper PMC10724198
